# Read-outs that look alike come from different tables or passages of the source.
# B1: pegylated interferon lambda-1a (protein)
# chain: MKPTTTGKGCHIGRFKSLSPQELASFKKARDALEESLKLKNWSCSSPVFPGNWDLRLLQVRERPVALEAELALTLKVLEAAAGPALEDVLDQPLHTLHHILSQLQACIQPQPTAGPRPRGRLHHWLHRLQEAPKKESAGCLEASVTFNLFRLLTRDLKYVADGNLSLRTSTHPEST
# modifications: PEG
# notes: 180 mcg subcutaneous injection
# How the values were obtained:
# [1] = for Aes: outside of the directed symptom categories
# Protocol: Detailed directed and open-ended symptoms were assessed serially. Because of overlap between symptoms of COVID-19 and potential peginterferon-lambda Aes, symptoms were recorded and Aes were considered any symptom outside of the directed symptom assessment. Laboratory AE severity was graded using the Common Terminology Criteria for Adverse Events (CTCAE) Version 5.0.
# [2] = system: SARS-CoV-2 (2019-nCoV/USA-WA1/2020); assay type: cell-based; details: HAE pretreated basolaterally 24 hr
# SARS-CoV-2 = assay: First trial: single 180 mcg dose vs placebo in 120 participants with COVID-19; assay type: in vivo, human
# Protocol: Using the methods and criteria described above in Examples 1-3, a first trial was performed. In the first trial, 120 participants were enrolled; 70 (58.3%) were male, 75 (62.5%) identified as Latinx, and the median duration of symptoms prior to randomization was 5 days. Sixty participants were randomly assigned to receive 180 mcg pegylated interferon lambda-1a, and 60 participants were assigned to receive a placebo. […] Subjects viral samples were taken by oral pharyngeal swabs. The median time to cessation of viral shedding was 7 days in both arms (hazard ratio [HR] for duration of shedding 0.81 comparing Lambda vs. placebo; 95% confidence interval [CI] 0.56 to 1.19; p=0.29). No difference in time to resolution of symptoms was observed comparing interferon lambda vs. placebo (HR 0.94; 95% CI 0.64 to 1.39; p=0.76). Two serious adverse events were reported in each arm. Liver transaminase elevations were more common in the interferon lambda vs. placebo arm (15/60 vs 5/60; p=0.027).
# [3] = Baseline Viral Load <10E6 copies/mL
# [4] = Baseline Viral Load ≥10E6 copies/mL
# [5] = n=30, listed as Peginterferon Lambda
# [6] = n=30, listed as peginterferon-lambda
molecule,measurement,setting,value
B1,deaths,[1]; 14 days,No deaths
same,"OR symptom progression vs Placebo, All Symptoms",[1]; All samples,3.15
same,"OR symptom progression vs Placebo, Fever Syndrome",[1]; All samples,1.69
same,"OR symptom progression vs Placebo, Gastrointestinal",[1]; All samples,0.48
same,"OR symptom progression vs Placebo, Mood",[1]; All samples,0.90
same,"OR symptom progression vs Placebo, Musculoskeletal",[1]; All samples,1.80
same,"OR symptom progression vs Placebo, Neurologic",[1]; All samples,5.07
same,"OR symptom progression vs Placebo, Respiratory",[1]; All samples,4.67
same,"OR symptom progression vs Placebo, Skin",[1]; All samples,0.76
same,"OR symptom progression vs Placebo, All Symptoms",[1]; [3],1.63
same,"OR symptom progression vs Placebo, Fever Syndrome",[1]; [3],4.83
same,"OR symptom progression vs Placebo, Gastrointestinal",[1]; [3],0.40
same,"OR symptom progression vs Placebo, Mood",[1]; [3],0.32
same,"OR symptom progression vs Placebo, Musculoskeletal",[1]; [3],2.55
same,"OR symptom progression vs Placebo, Neurologic",[1]; [3],1.60
same,"OR symptom progression vs Placebo, Respiratory",[1]; [3],3.67
same,"OR symptom progression vs Placebo, Skin",[1]; [3],0.51
same,"OR symptom progression vs Placebo, All Symptoms",[1]; [4],2.39
same,"OR symptom progression vs Placebo, Fever Syndrome",[1]; [4],1.24
same,"OR symptom progression vs Placebo, Gastrointestinal",[1]; [4],0.58
same,"OR symptom progression vs Placebo, Mood",[1]; [4],1.29
same,"OR symptom progression vs Placebo, Musculoskeletal",[1]; [4],1.19
same,"OR symptom progression vs Placebo, Neurologic",[1]; [4],2.61
same,"OR symptom progression vs Placebo, Respiratory",[1]; [4],5.88
same,"OR symptom progression vs Placebo, Skin",[1]; [4],1.90
same,Emergency Room visits,[1]; n=30,1
same,Hospital admissions,[1]; n=30,1
same,"Lab Abnormalities (grade 3 or 4), Alanine aminotransferase (ALT)",[1]; n=30,1
same,"Lab Abnormalities (grade 3 or 4), Aspartate aminotransferase (AST)",[1]; n=30,1
same,"Lab Abnormalities (grade 3 or 4), Creatinine",[1]; n=30,0
same,"Lab Abnormalities (grade 3 or 4), Hemoglobin",[1]; n=30,0
same,"Lab Abnormalities (grade 3 or 4), Lymphocytes",[1]; n=30,0
same,"Lab Abnormalities (grade 3 or 4), Neutrophils",[1]; n=30,0
same,"Lab Abnormalities (grade 3 or 4), Platelets",[1]; n=30,0
same,"Lab Abnormalities (grade 3 or 4), Total bilirubin",[1]; n=30,0
same,"Lab Abnormalities (grade 3 or 4), White Blood Cells",[1]; n=30,0
same,Treatment-Related Aes,[1]; n=30,0
same,Treatment-Related SAEs,[1]; n=30,0
same,"Severe Symptoms, number of patients","[1]; n=30, 14 days",7
same,"Severe Symptoms, reports","[1]; n=30, 14 days",20
same,SAEs,[1]; [5],1
same,SAEs,[1]; [6],One
same,Aes,[1]; [5],2
same,Aes,[1]; [6],two
same,aminotransferase elevations compared to placebo,[1]; single 180 mcg s.c.,higher rate of transient aminotransferase elevations
same,tolerability,[1]; single 180 mcg s.c.,well-tolerated with few adverse events
same,"SARS-CoV-2 infectious virus production (titer of apical washes, plaque assay)",[2]; […],reducing viral load in infected cells
same,"SARS-CoV-2 infectious virus production (titer of apical washes, plaque assay)","[2]; […];, listed as peg-IFN-λ1",potent dose dependent reduction
same,shedding cessation relative to placebo,SARS-CoV-2; seronegative at baseline,delayed shedding cessation relative to placebo
same,shedding cessation relative to placebo,SARS-CoV-2; seropositive at baseline,appeared to hasten shedding cessation
same,effect on duration of viral shedding and symptoms compared to placebo,SARS-CoV-2; single 180 mcg s.c.,neither shortened the duration of SARS-CoV-2 viral shedding nor improved symptoms
same,hazard ratio for duration of shedding vs. placebo,SARS-CoV-2; single 180 mcg s.c.,0.81
same,"hazard ratio, time to resolution of symptoms vs. placebo",SARS-CoV-2; single 180 mcg s.c.,0.94
same,liver transaminase elevations (participants of arm),SARS-CoV-2; single 180 mcg s.c.,15/60
same,serious adverse events reported in the arm,SARS-CoV-2; single 180 mcg s.c.,Two
same,tolerability,SARS-CoV-2; single 180 mcg s.c.,well tolerated
same,median time to cessation of viral shedding,"SARS-CoV-2; single 180 mcg s.c., n=60",7 days
